Patent US6153382

Key:
[1] = biological target: HIV-1 Rev (Human immunodeficiency virus 1) (UniProt P04618); assay: filter
[2] = biological target: HIV-1 Rev (Human immunodeficiency virus 1) (UniProt P04618); assay: competition; details: D1/2 vs labelled RRE; 17 nM rev

With R7 full-length RRE transcript (238 nt) as the substance, how does the Kd ([1]; 50% RNA bound at 10 nM rev, 43 mM Tris pH 8.0, 50 mM KCl, 4 C) read?
Its Kd is 3 nM.

What about the Kd ([1]; Scatchard high-affinity site, 50 mM KCl) of the same substance?
Its Kd is 2 nM.

What about the Kd ([1]; Scatchard high-affinity site, 200 mM KCl) of the same substance?
Its Kd is 4 nM.

And the IC50 [2]?
The IC50 was 2 nM.
